Reference: article PMC11711316 (Nature Communications, 2025)

Assays:
[1] = target: T1, Rab3GAP2 (human, full length, C-terminal 3x-FLAG) (human, UniProt Q9H2M9 1-1393); experiment: SEC
T1 sequence (looked up): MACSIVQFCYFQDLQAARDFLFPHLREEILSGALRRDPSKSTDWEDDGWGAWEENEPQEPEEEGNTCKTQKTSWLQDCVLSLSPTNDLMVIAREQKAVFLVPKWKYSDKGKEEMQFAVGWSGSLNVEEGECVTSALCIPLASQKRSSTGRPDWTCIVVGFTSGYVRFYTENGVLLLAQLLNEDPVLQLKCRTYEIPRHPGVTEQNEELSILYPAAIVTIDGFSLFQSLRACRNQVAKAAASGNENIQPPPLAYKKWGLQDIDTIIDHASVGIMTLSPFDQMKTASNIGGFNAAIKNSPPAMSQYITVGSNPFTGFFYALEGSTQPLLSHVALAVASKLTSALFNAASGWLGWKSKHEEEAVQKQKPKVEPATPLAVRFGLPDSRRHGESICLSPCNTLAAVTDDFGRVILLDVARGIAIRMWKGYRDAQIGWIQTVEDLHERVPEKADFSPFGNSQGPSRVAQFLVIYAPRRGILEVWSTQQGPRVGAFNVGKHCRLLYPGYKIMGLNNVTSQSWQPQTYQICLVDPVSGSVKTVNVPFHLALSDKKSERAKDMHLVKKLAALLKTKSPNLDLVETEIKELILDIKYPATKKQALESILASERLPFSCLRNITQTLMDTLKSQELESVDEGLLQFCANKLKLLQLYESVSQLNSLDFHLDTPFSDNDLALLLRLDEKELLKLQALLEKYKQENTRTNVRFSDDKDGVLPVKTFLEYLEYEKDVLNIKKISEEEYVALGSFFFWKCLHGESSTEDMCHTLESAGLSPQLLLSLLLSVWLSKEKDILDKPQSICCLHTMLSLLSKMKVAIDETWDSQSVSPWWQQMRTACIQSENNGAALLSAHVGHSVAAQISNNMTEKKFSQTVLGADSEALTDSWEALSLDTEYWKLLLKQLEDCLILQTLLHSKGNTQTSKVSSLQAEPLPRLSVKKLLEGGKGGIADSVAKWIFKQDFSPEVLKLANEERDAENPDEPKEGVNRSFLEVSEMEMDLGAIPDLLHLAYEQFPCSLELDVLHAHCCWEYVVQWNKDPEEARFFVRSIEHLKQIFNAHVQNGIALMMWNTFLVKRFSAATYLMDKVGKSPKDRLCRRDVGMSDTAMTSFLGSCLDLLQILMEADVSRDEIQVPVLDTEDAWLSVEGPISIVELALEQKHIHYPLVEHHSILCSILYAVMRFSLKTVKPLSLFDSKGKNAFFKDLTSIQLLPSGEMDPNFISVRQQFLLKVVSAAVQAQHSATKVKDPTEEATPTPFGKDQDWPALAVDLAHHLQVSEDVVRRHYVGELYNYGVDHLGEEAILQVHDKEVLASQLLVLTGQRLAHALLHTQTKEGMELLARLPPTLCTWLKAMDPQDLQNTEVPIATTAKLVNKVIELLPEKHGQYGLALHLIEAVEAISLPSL

[2] = target: T2, Rab3GAP2N (N-terminal domain of Rab3GAP2, 1-544) (human, UniProt Q9H2M9 1-544); experiment: SEC
T2 sequence (looked up): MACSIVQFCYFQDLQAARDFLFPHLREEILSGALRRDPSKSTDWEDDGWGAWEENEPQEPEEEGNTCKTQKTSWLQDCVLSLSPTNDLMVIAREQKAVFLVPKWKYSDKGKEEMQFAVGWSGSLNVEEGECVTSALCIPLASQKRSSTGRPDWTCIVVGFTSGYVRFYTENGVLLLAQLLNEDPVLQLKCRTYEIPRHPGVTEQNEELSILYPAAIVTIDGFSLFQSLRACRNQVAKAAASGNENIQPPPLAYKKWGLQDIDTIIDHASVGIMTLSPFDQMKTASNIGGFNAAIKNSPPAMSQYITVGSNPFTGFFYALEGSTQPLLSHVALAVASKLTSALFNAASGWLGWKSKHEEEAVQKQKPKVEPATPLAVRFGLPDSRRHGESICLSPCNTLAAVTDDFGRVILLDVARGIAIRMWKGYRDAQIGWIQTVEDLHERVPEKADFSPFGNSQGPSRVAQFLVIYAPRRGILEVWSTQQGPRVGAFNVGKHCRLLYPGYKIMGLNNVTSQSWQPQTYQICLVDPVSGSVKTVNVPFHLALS

B1: Rab3GAP1 (human, full length, N-terminal TSP tag) (natural protein, UniProt Q15042 1-981, looked up)
chain: MAADSEPESEVFEITDFTTASEWERFISKVEEVLNDWKLIGNSLGKPLEKGIFTSGTWEEKSDEISFADFKFSVTHHYLVQESTDKEGKDELLEDVVPQSMQDLLGMNNDFPPRAHCLVRWYGLREFVVIAPAAHSDAVLSESKCNLLLSSVSIALGNTGCQVPLFVQIHHKWRRMYVGECQGPGVRTDFEMVHLRKVPNQYTHLSGLLDIFKSKIGCPLTPLPPVSIAIRFTYVLQDWQQYFWPQQPPDIDALVGGEVGGLEFGKLPFGACEDPISELHLATTWPHLTEGIIVDNDVYSDLDPIQAPHWSVRVRKAENPQCLLGDFVTEFFKICRRKESTDEILGRSAFEEEGKETADITHALSKLTEPASVPIHKLSVSNMVHTAKKKIRKHRGVEESPLNNDVLNTILLFLFPDAVSEKPLDGTTSTDNNNPPSESEDYNLYNQFKSAPSDSLTYKLALCLCMINFYHGGLKGVAHLWQEFVLEMRFRWENNFLIPGLASGPPDLRCCLLHQKLQMLNCCIERKKARDEGKKTSASDVTNIYPGDAGKAGDQLVPDNLKETDKEKGEVGKSWDSWSDSEEEFFECLSDTEELKGNGQESGKKGGPKEMANLRPEGRLYQHGKLTLLHNGEPLYIPVTQEPAPMTEDLLEEQSEVLAKLGTSAEGAHLRARMQSACLLSDMESFKAANPGCSLEDFVRWYSPRDYIEEEVIDEKGNVVLKGELSARMKIPSNMWVEAWETAKPIPARRQRRLFDDTREAEKVLHYLAIQKPADLARHLLPCVIHAAVLKVKEEESLENISSVKKIIKQIISHSSKVLHFPNPEDKKLEEIIHQITNVEALIARARSLKAKFGTEKCEQEEEKEDLERFVSCLLEQPEVLVTGAGRGHAGRIIHKLFVNAQRAAAMTPPEEELKRMGSPEERRQNSVSDFPPPAGREFILRTTVPRPAPYSKALPQRMYSVLTKEDFRLAGAFSSDTSFF
[1]
  stoichiometry N: 1
[2]
  stoichiometry N: 1
